Measured values: patent US5488099, “Multifunctional chimeric neurotrophic factors” (dated 1996)
Where a chain is given by its changes, count along the chain named. Names and notes keep the numbering of the source.

B1: wild-type rat nerve growth factor (ligand)
chain: SSTHPVFHMGEFSVCDSVSVWVGDKTTATDIKGKEVTVLGEVNINNSVFKQYFFETKCRAPNPVESGCRGIDSKHWSNYCTTTHTFVKALTTDDKQAAWRFIRIDTACVCVLSRKAARRG
B2: NGF mutant I31A (ligand)
chain: B1 chain with I31A
B3: wild-type brain-derived neurotrophic factor (ligand)
chain: HSDPARRGELSVCDSISEWVTAADKKTAVDMSGGTVTVLEKVPVSKGQLKQYFYETKCNPMGYTKEGCRGIDKRHWSNQCRTTQSYVRALTMDSKKRIGWRFIRIDTSCVCTLTIKRGR

What was measured:
[1] = molecular target: TrkA of NGF-responsive neurons from embryonic chick sympathetic ganglia (chick)
TrkB [2] = molecular target: T1, TrkB (Rattus norvegicus (Rat), UniProt Q63604); assay: competition with 125I-BDNF on rtrkB-3T3 cells, COS conditioned medium, relative binding from IC50
Description: (§1) Purified mouse NGF and BDNF were labeled with ^125I by the lactoperoxidase method to an average specific activity of 1×10^8 cpm/μg. For the labeling of BDNF, the modifications described by Rodriguez-Tebar et al. ([Rodriguez-Tebar, 1992]) were used. NIH3T3 fibroblasts expressing TrkA, TrkB or TrkC were used at 2 to 1–×10^6 cells/ml. Steady state binding was measured in competition assays performed at 4° C. using 1.5×10^-9M ^125I-BDNF and serial dilutions of conditioned media containing equivalent amounts of wt or mutated NGF protein. All components were added at the same time and the cells were collected by centrifugation after equilibrium was reached (90–120 minutes incubation). Cell pellets were then counted in a gamma counter. […] Nonspecific binding was measured in a parallel incubation to which 300 to 1000-fold molar excess of unlabelled purified factor was added. All results were corrected for this nonspecific binding, which was less than 10% (for NGF) or 30% (for BDNF) of total binding. The concentration of each chimeric, mutant and wild type molecule that gave 50% binding (IC$50$) was determined, and relative binding was calculated using the relationship:(mutant IC$50$/wild type IC$50$)X 100.

TrkA [3] = molecular target: T2, TrkA (Rattus norvegicus (Rat), UniProt P35739); assay: competition with 125I-NGF on rtrkA-3T3 cells, COS conditioned medium, relative binding from IC50
Description: (§2) FIG. 2A–D. TrkA receptor binding, receptor phosphorylation and biological activity of wild-type (wt) and chimeric molecules (see SEQ. ID. NOS. 1 and 2 for all chimeric constructions). […] Each point represents the mean of triplicate determinations. Standard deviation was at or generally below ±10%. (B) and (C) Tyrosine phosphorylation of TrkA receptors stimulated by wt NGF, wt BDNF and chimeric molecules. rtrkA-3T3 cells were treated with 100 ng/ml of the indicated recombinant proteins and assayed for tyrosine phosphorylation. Media from mock-transfected COS cells was used as negative control (CONTROL). Arrowhead indicates the migration of phosphorylated TrkA (p140^trk). The faster migrating band correspond to constituitively phosphorylated p140^trk precursors ([Kaplan, 1991]). (D) Serial dilutions of transfected COS cell conditioned medium containing equal amounts of wt and chimeric factors were assayed for their ability to stimulate neurite outgrowth from E8 chick sympathetic ganglia. Data from three determinations varied by ±20% of the average values reported here. Key symbols as in (A).
Purified mouse NGF and BDNF were labeled with ^125I by the lactoperoxidase method to an average specific activity of 1×10^8 cpm/μg. For the labeling of BDNF, the modifications described by Rodriguez-Tebar et al. ([Rodriguez-Tebar, 1992]) were used. NIH3T3 fibroblasts expressing TrkA, TrkB or TrkC were used at 2 to 1–×10^6 cells/ml. […] All components were added at the same time and the cells were collected by centrifugation after equilibrium was reached (90–120 minutes incubation). Cell pellets were then counted in a gamma counter.

[4] = molecular target: TrkB of BDNF-responsive neurons from embryonic chick nodose ganglia (chick)
TrkB of BDNF-responsive neurons from embryonic chick nodose ganglia (chick), sequence (Q91987 whole entry): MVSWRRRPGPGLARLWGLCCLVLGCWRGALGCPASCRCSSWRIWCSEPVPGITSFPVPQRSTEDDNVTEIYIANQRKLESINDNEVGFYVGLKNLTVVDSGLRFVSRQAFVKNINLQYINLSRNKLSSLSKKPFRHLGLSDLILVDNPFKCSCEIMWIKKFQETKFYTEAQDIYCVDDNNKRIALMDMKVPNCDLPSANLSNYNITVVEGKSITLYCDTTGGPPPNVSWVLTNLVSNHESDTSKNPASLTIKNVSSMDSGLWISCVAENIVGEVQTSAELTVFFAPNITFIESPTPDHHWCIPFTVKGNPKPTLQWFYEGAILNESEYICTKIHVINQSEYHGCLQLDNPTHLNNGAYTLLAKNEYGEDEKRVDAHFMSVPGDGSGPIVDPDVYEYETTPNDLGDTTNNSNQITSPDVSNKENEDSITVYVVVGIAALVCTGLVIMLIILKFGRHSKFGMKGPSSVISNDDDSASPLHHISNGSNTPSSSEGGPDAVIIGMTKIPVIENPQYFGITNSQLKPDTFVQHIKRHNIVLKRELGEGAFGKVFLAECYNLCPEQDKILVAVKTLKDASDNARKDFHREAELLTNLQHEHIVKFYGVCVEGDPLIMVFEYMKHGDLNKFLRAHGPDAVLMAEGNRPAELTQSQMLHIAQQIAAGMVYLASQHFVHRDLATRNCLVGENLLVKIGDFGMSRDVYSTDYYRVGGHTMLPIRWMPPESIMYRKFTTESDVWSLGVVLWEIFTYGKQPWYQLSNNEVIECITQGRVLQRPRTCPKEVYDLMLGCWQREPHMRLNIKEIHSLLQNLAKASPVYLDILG

TrkB [5] = molecular target: T1, TrkB; assay: competition with 125I-BDNF on rtrkB-3T3 cells
Description: as §1

TrkA [6] = molecular target: T2, TrkA; assay: competition with 125I-NGF on rtrkA-3T3 cells
Description: as §1, with “Steady state binding was measured in competition assays performed at 4° C. using 1.5×10^-9M ^125I-BDNF and serial dilutions of conditioned media containing equivalent amounts of wt or mutated NGF protein.” left out
Figure 3A: FIG. 3A&B. NGF variable regions I, IV and V partially restore TrkA binding and biological activity of the NH_2+I+III+IV+V chimeric molecule (see SEQ. ID. NOS. 1 and 2 for all chimera construction). […] Each point represents the mean of triplicate determinations.

TrkA [7] = molecular target: T2, TrkA; assay: competition with 125I-NGF on rtrkA-3T3 cells; remark: listed apart in the source
Description: as §2
Purified mouse NGF and BDNF were labeled with ^125I by the lactoperoxidase method to an average specific activity of 1×10^8 cpm/μg. For the labeling of BDNF, the modifications described by Rodriguez-Tebar et al. ([Rodriguez-Tebar, 1992]) were used. […] Cell pellets were then counted in a gamma counter.

[8] = molecular target: TrkB (Rattus norvegicus (Rat)) (UniProt Q63604)

Binder | Biological Activity % of wild type (neurite outgrowth from explants of embryonic sympathetic ganglia) (% of wild type) [1] | Receptor Binding % of wild type (TrkB [2]) | Receptor Binding % of wild type (TrkA [3]) | Biological Activity % of wild type (maximal cell survival of dissociated embryonic nodose neurons) (% of wild type) [4] | binding result (TrkB [5]) | fold reduction in receptor binding against wt NGF (TrkA [6]) | binding result (TrkA [7]) | EC50 of TrkB tyrosine phosphorylation [8]
B1 | 100 | < 0.2 % of wild type | 100 % of wild type | < 5 | no binding (tested: <0,2 % of wild type) |  |  | 
B2 | 25 |  | 20 % of wild type |  |  | 4 fold |  | 
B3 | < 0.2 | 100 % of wild type | < 0.2 % of wild type | 100 |  |  | no binding (tested: <0,2 % of wild type) | 5 ng/mL
